Assay results reported in paper PMC5607398, “Neisseria cinerea Expresses a Functional Factor H Binding Protein Which Is Recognized by Immune Responses Elicited by Meningococcal Vaccines” (Infection and Immunity, 2017).

B2: Neisseria meningitidis V1.1 factor H binding protein (V1.1 fHbp), recombinant (natural protein)
chain: GGVAADIGAGLADALTAPLDHKDKGLQSLTLDQSVRKNEKLKLAAQGAEKTYGNGDSLNTGKLKNDKVSRFDFIRQIEVDGQLITLESGEFQVYKQSHSALTAFQTEQIQDSEHSGKMVAKRQFRIGDIAGEHTSFDKLPEGGRATYRGTAFGSDDAGGKLTYTIDFAAKQGNGKIEHLKSPELNVDLAAADIKPDGKRHAVISGSVLYNQAEKGSYSLGIFGGKAQEVAGSAEVKTVNGIRHIGLAAKQ
notes: source: E. coli BL21(DE3), pET21b, purified (HisTrap, anion exchange)

How the values were obtained:
[1] = target: full-length human CFH (Sigma) (UniProt P08603); assay: ELISA; conditions: read off a plot
[2] = target: Neisseria cinerea CCUG 346T factor H binding protein (V1.110 fHbp), recombinant (Neisseria cinerea); assay: SPR
[3] = target: B2; assay: SPR; conditions: both partners purified
[4] = target: T1, full-length human CFH (Sigma) (human, UniProt P08603 19-1231); assay: ELISA; plates coated with recombinant fHbp (3 ug/ml); full-length human CFH (Sigma) in 2-fold dilutions from 10 ug/ml; detected with anti-CFH antibody; conditions: both partners purified
T1 construct: also called full-length CFH; source: bought: Sigma

Molecule: Neisseria meningitidis V1.1 factor H binding protein (V1.1 fHbp), recombinant (from UniProt Q9JXV4) I311A
- response ([1]; CFH 1.25 µg/ml (x position estimated), parent: est. 0.35): 0.073 OD 450nm
- response ([1]; CFH 2.5 µg/ml, parent: est. 0.40): 0.082 OD 450nm
- response ([1]; CFH 5 μg/ml, parent: est. 0.40): 0.082 OD 450nm
- response ([1]; CFH 5 µg/ml, parent: est. 0.41): 0.11 OD 450nm
- response ([1]; CFH 10 µg/ml, parent: est. 0.47): 0.19 OD 450nm

Molecule: recombinant CFH6–7 (CCP domains 6 and 7 of complement factor H) (from UniProt P08603 321-443) (domain or fragment)
- Kd [2]: 3.5 nM

B1: recombinant CFH6–7 (CCP domains 6 and 7 of complement factor H) (domain or fragment, human)
chain: TLKPCDYPDIKHGGLYHENMRRPYFPVAVGKYYSYYCDEHFETPSGSYWDHIHCTQDGWSPAVPCLRKCYFPYLENGYNQNYGRKFVQGKSIDVACHPGYALPKAQTTVTCMENGWSPTPRCI
- Kd [3]: 3 ± 0.5 nM

Molecule: B2
- binding result [4]: binds
